The values that follow come from US20220064263A1 (published 2022).

One assay concerns the target T1, human C1q (human, UniProt P02745 23-245; P02746 28-253; P02747 29-245).
T1 construct: Bought protein complex; the three subunit chains come from general knowledge; also called C1q complex
Description: biosensor; fusion captured on IL4-bound tips, human C1q at 250 µg/mL. Here is the method:
(§1) A biosensor binding analysis was performed to determine the binding affinity of C1q to IL13R(ECD)-IL4R(ECD)-wild type canine IgG-B Fc (SEQ ID NO: 271) compared to IL13R(ECD)-IL4R(ECD)-variant canine IgG-B Fc (SEQ ID NO: 202). Briefly canine IL4 was biotinylated and captured to streptavidin sensor tips. Either IL13R(ECD)-IL4R(ECD)-wild type canine IgG-B Fc (25 μg/mL) or IL13R(ECD)-IL4R(ECD)-variant canine IgG-B Fc (25 μg/mL) was complexed to the IL4-bound biosensors. Subsequently, the complex was used to bind human C1q at 250 μg/mL (Catalog No. 204876-1MG; Sigma Aldrich). The ability of human C1q to bind either complex was measured. Reduced binding between human C1q and IL13R(ECD)-IL4R(ECD)-variant canine IgG-B Fc was observed when compared to IL13R(ECD)-IL4R(ECD)-wild type canine IgG-B Fc.

For another assay, the target named is T2, canine IL4 (canine, UniProt O77762 25-132, biotinylated (site not stated)).
T2 construct: Biotinylated and captured on streptavidin sensor tips
T2 sequence (looked up): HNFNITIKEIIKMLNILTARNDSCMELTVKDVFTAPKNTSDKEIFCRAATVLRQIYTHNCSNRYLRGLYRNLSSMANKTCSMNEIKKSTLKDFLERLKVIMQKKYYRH
Description: biosensor; biotinylated canine IL4 on streptavidin tips, fusion at 25 µg/mL. The procedure: as §1

T1 sequence (P02745 23-245 limits assumed, chain 1 of 3): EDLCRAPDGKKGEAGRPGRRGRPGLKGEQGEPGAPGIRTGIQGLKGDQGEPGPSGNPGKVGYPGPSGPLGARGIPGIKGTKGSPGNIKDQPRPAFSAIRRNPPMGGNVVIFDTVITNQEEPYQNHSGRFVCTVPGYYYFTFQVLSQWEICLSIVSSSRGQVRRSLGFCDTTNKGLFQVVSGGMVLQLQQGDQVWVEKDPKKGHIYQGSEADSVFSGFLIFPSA
T1 sequence (P02746 28-253 limits assumed, chain 2 of 3): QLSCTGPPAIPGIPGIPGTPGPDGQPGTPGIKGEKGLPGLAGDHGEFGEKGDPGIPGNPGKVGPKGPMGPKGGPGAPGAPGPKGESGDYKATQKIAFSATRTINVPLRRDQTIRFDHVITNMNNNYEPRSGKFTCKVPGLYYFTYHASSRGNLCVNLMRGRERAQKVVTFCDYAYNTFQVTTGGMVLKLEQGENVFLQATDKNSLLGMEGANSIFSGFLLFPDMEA
T1 sequence (P02747 29-245 limits assumed, chain 3 of 3): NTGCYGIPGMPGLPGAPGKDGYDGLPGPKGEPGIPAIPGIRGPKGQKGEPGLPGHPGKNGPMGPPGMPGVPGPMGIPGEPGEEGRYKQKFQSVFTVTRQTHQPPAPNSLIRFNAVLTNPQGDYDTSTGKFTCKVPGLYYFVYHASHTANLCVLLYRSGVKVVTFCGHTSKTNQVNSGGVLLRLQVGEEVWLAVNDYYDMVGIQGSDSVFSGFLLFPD

B1: IL13R(ECD)-IL4R(ECD)-wild type canine IgG-B Fc (Fc fusion)
chain: TETQPPVTNLSVSVENLCTVIWTWDPPEGASPNCTLRYFSHFDNKQDKKIAPETHRSKEVPLNERICLQVGSQCSTNESDNPSILVEKCTPPPEGDPESAVTELQCVWHNLSYMKCTWLPGRNTSPDTNYTLYYWHSSLGKILQCEDIYREGQHIGCSFALTNLKDSSFEQHSVQIVVKDNAGKIRPSFNIVPLTSHVKPDPPHIKRLFFQNGNLYVQWKNPQNFYSRCLSYQVEVNNSQTETNDIFYVEEAKCQNSEFEGNLEGTICFMVPGVLPDTLNTVRIRVRTNKLCYEDDKLWSNWSQAMSIGENTDPTGGGSGSGSVKVLHEPSCFSDYISTSVCQWKMDHPTNCSAELRLSYQLDFMGSENHTCVPENREDSVCVCSMPIDDAVEADVYQLDLWAGQQLLWSGSFQPSKHVKPRTPGNLTVHPNISHTWLLMWTNPYPTENHLHSELTYMVNVSNDNDPEDFKVYNVTYMGPTLRLAASTLKSGASYSARVRAWAQTYNSTWSDWSPSTTWLNYYEPKRENGRVPRPPDCPKCPAPEMLGGPSVFIFPPKPKDTLLIARTPEVTCVVVDLDPEDPEVQISWFVDGKQMQTAKTQPREEQFNGTYRVVSVLPIGHQDWLKGKQFTCKVNNKALPSPIERTISKARGQAHQPSVYVLPPSREELSKNTVSLTCLIKDFFPPDIDVEWQSNGQQEPESKYRTTPPQLDEDGSYFLYSKLSVDKSRWQRGDTFICAVMHEALHNHYTQESLSHSPGK
notes: also called fusion protein comprising wild-type canine IgG-B Fc
Consider B1, for which the binding result with human C1q and in the assay with canine IL4 was “binds” throughout.

B2: IL13R(ECD)-IL4R(ECD)-variant canine IgG-B Fc (Fc fusion)
chain: TETQPPVTNLSVSVENLCTVIWTWDPPEGASPNCTLRYFSHFDNKQDKKIAPETHRSKEVPLNERICLQVGSQCSTNESDNPSILVEKCTPPPEGDPESAVTELQCVWHNLSYMKCTWLPGRNTSPDTNYTLYYWHSSLGKILQCEDIYREGQHIGCSFALTNLKDSSFEQHSVQIVVKDNAGKIRPSFNIVPLTSHVKPDPPHIKRLFFQNGNLYVQWKNPQNFYSRCLSYQVEVNNSQTETNDIFYVEEAKCQNSEFEGNLEGTICFMVPGVLPDTLNTVRIRVRTNKLCYEDDKLWSNWSQAMSIGENTDPTGGGSGSGSVKVLHEPSCFSDYISTSVCQWKMDHPTNCSAELRLSYQLDFMGSENHTCVPENREDSVCVCSMPIDDAVEADVYQLDLWAGQQLLWSGSFQPSKHVKPRTPGNLTVHPNISHTWLLMWTNPYPTENHLHSELTYMVNVSNDNDPEDFKVYNVTYMGPTLRLAASTLKSGASYSARVRAWAQTYNSTWSDWSPSTTWLNYYEPKRENGRVPRPPDCPKCPAPEMLGGPSVFIFPPKPKDTLLIARTPEVTCVVVDLDPEDPEVQISWFVDGKQMQTAKTQPREEQFNGTYRVVSVLPIGHQDWLKGKQFTCRVNNKALPSPIERTISKARGQAHQPSVYVLPPSREELSKNTVSLTCLIKDFFPPDIDVEWQSNGQQEPESKYRTTPPQLDEDGSYFLYSKLSVDKSRWQRGDTFICAVMHEALHNHYTQESLSHSPGK
notes: also called fusion protein comprising variant canine IgG-B Fc K(93)R
On to B2, for which the binding result with human C1q and with canine IL4 was “binds” each time.
